Experimental data reported in US20250290928A1, “METHOD, KIT AND DEVICE FOR DETECTING EXTRACELLULAR VESICLES” (priority 2022, published 2025).
*: point of attachment. 5FAM = O=C1OC2(c3ccc(O)cc3Oc3cc(O)ccc32)c2ccc(C(=O)*)cc21; TQ2 = quencher

Columns and labels:
Type in all cases: biochemical
[1] = molecular target: T1, MMP14 in the MDA-MB-231-derived extracellular vesicles (Homo sapiens, UniProt P50281); assay: Digital detection of MDA-MB-231-derived extracellular vesicles through MMP14 activity in wells (microcompartments)
T1 construct: in terms of intact MMP14 with a molecular weight of 70 kDa
How it was run: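 MDA-MB-231 extracellular-vesicle samples were mixed 1:1 with MMP14 detection solution. The reaction mix was sealed under fluorinated oil in 50 fL microwells (239,000-well array), giving digital single-well readout of MMP14 activity. Standard samples were prepared by serial dilution, and bulk MMP14 activity was also measured in 96-well format.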

[2] = molecular target: T2, MMP14 in the A549-derived extracellular vesicles (Homo sapiens, UniProt P50281); assay: Digital detection of A549-derived extracellular vesicles through MMP14 activity in wells (Simoa Discs); settings: for Expected value λ / Number of positives / Positive ratio: 5 h
T2 construct: host or cells: A549 (purified exosomes)
Protocol: The concentration of the solution is 20 μg/mL. […] The concentration of the solution was set to x1, and 10-fold serial dilution was performed to prepare standard samples with five concentrations.
The concentration of the solution is 10 μg/mL.

[3] = molecular target: T1, MMP14 in the MDA-MB-231-derived extracellular vesicles; assay: Digital detection through MMP14 activity of MDA-MB-231-derived extracellular vesicles captured on Tim4-immobilized magnetic particles; settings: Table 56, MB231 Present, 24 hours at 23° C.
[4] = Example 18, 78.5 fL wells, EV 3.3 μg/mL, reporter 5 μM, 37° C., 3 hours, oil AE-3000 and Y25
[5] = Example 18, 78.5 fL wells, EV 3.3 μg/mL, reporter 5 μM, 37° C., 3 hours, oil Simoa
[6] = Example 19, 37° C., 3 h, EV 0.0001 a.u. (x1=10 μg/mL)
[7] = Example 19, 37° C., 3 h, EV 0.001 a.u. (x1=10 μg/mL)
[8] = Example 19, 37° C., 3 h, EV 0.01 a.u. (x1=10 μg/mL)
[9] = Example 19, 37° C., 3 h, EV 0.1 a.u. (x1=10 μg/mL)
[10] = Example 19, 37° C., 3 h, EV 1 a.u. (x1=10 μg/mL)
[11] = Example 19, 37° C., 7 h, EV 0.0001 a.u. (x1=10 μg/mL)
[12] = Example 19, 37° C., 7 h, EV 0.001 a.u. (x1=10 μg/mL)
[13] = Example 19, 37° C., 7 h, EV 0.01 a.u. (x1=10 μg/mL)
[14] = Example 19, 37° C., 7 h, EV 0.1 a.u. (x1=10 μg/mL)
[15] = Example 19, 37° C., 7 h, EV 1 a.u. (x1=10 μg/mL)
[16] = Example 22, buffer (2), 37° C., 1 h, EV 0 (free of extracellular vesicles)
[17] = Example 22, buffer (2), 37° C., 1 h, EV 0.111 a.u.
[18] = Example 22, buffer (2), 37° C., 1 h, EV 0.333 a.u.
[19] = Example 22, buffer (2), 37° C., 1 h, EV 1 a.u. (x1=10 μg/mL)
[20] = Example 22, buffer (2), 37° C., 2 h, EV 0 (free of extracellular vesicles)
[21] = Example 22, buffer (2), 37° C., 2 h, EV 0.111 a.u.
[22] = Example 22, buffer (2), 37° C., 2 h, EV 0.333 a.u.
[23] = Example 22, buffer (2), 37° C., 2 h, EV 1 a.u. (x1=10 μg/mL)
[24] = Example 27, 23° C., EV 0 (free of extracellular vesicles)
[25] = Example 27, 23° C., EV 0.01 a.u.
[26] = Example 27, 23° C., EV 0.1 a.u.
[27] = Example 27, reporter 10 μM, 23° C., EV 1 a.u. (x1=5 μg/mL)

## [5-FAM]GGPLGLAGGK(TQ2)[OH] (5FAM-GGPLGLAGGK(TQ2)-OH) [Custom #2]
[1]; [4]
  Expected value λ: 0.235
  Number of positives: 3,094
  Positive ratio: 0.21
[1]; [5]
  Expected value λ: 0.188
  Number of positives: 2,529
  Positive ratio: 0.171
[1]; Example 18, oil AE-3000 and Y25
  Extracellular vesicle concentration: 9.1×10^8 /μg of protein
[1]; Example 18, oil AE-3000 and Y25, reaction solution 3.3 μg of protein/mL
  Extracellular vesicle concentration: 3e+09 mL⁻¹
[1]; Example 18, oil Simoa
  Extracellular vesicle concentration: 7.3×10^8 /μg of protein
[1]; Example 18, oil Simoa, reaction solution 3.3 μg of protein/mL
  Extracellular vesicle concentration: 2.4e+09 mL⁻¹
[1]; [6]
  Expected value λ: 0.000138
  Number of positives: 4
  Positive ratio: 0.000138
[1]; [7]
  Expected value λ: 0.0011
  Number of positives: 32
  Positive ratio: 0.0011
[1]; [8]
  Expected value λ: 0.00915
  Number of positives: 264
  Positive ratio: 0.00911
[1]; [9]
  Expected value λ: 0.0827
  Number of positives: 2,305
  Positive ratio: 0.0794
[1]; [10]
  Expected value λ: 0.717
  Number of positives: 14,539
  Positive ratio: 0.512
[1]; [11]
  Expected value λ: 0.000104
  Number of positives: 3
  Positive ratio: 0.000104
[1]; [12]
  Expected value λ: 0.000828
  Number of positives: 24
  Positive ratio: 0.000828
[1]; [13]
  Expected value λ: 0.0092
  Number of positives: 263
  Positive ratio: 0.00916
[1]; [14]
  Expected value λ: 0.0929
  Number of positives: 2,571
  Positive ratio: 0.0887
[1]; [15]
  Expected value λ: 2.33
  Number of positives: 26,093
  Positive ratio: 0.902
[1]; Example 19, 3 hours
  Extracellular vesicle concentration: 1.3×10^9 /μg of protein
[1]; Example 19, 3 hours, reaction solution 10 μg of protein/mL, 50 fL
  Extracellular vesicle concentration: 1.3e+10 mL⁻¹
[1]; Example 19, 7 hours
  extracellular vesicles in which MMP14 activity can be detected, contained in 1 μL of the extracellular vesicles (50 μg of protein in 50 μL of PBS): 1.8×10^9
[1]; Example 19, 7 hours, reaction solution 10 μg of protein/mL, 50 fL
  Extracellular vesicle concentration: 1.8e+10 mL⁻¹
[1]; Example 19, reaction time of 3 hours
  λ at x1 from the approximation: 0.6727
[1]; Example 19, reaction time of 7 hours
  λ at x1 from the approximation: 0.8756
[1]; Example 22, after 1 hour
  expected value λ at x1 (power approximation): 0.5098
[1]; Example 22, after 2 hours
  expected value λ at x1 (power approximation): 0.7649
[1]; [16]
  Expected value λ: 0
  Number of positives: 0
  Positive ratio: 0
[1]; [17]
  Expected value λ: 0.0648
  Number of positives: 1,819
  Positive ratio: 0.0627
[1]; [18]
  Expected value λ: 0.193
  Number of positives: 5,094
  Positive ratio: 0.176
[1]; [19]
  Expected value λ: 0.497
  Number of positives: 11,360
  Positive ratio: 0.392
[1]; [20]
  Expected value λ: 0
  Number of positives: 0
  Positive ratio: 0
[1]; [21]
  Expected value λ: 0.0988
  Number of positives: 2,727
  Positive ratio: 0.0941
[1]; [22]
  Expected value λ: 0.267
  Number of positives: 6,788
  Positive ratio: 0.234
[1]; [23]
  Expected value λ: 0.774
  Number of positives: 15,608
  Positive ratio: 0.539
[1]; Simoa Discs, buffer (4), reporter 5 μM, 37° C.
  extracellular vesicle concentration at which MMP14 activity was able to be detected in the microcompartments: ≥ 1 ng/mL
[2]; Example 27
  Extracellular vesicle concentration: 1.1×10^9 /μg of protein
[2]; [24]
  Expected value λ: 0.000023
  Number of positives: 2
  Positive ratio: 0.000023
[2]; [25]
  Expected value λ: 0.004117
  Number of positives: 357
  Positive ratio: 0.004109
[2]; [26]
  Expected value λ: 0.03235
  Number of positives: 2,766
  Positive ratio: 0.03184
[2]; Example 27, 5 h
  λ at x1 in the approximation of FIG. 58: 0.2767
[2]; Example 27, reaction solution 5 μg of protein/mL, 50 fL
  concentration of the extracellular vesicles that can be detected based on the MMP14 activity: 5.5e+09 mL⁻¹
[2]; [27]
  Expected value λ: 0.2767
  Number of positives: 20,982
  Positive ratio: 0.2417
[3]; Particle MS300C
  Particle Number of positives: 1,288
[3]; Particle Simoa
  Particle Number of positives: 1,234
